# In a protein production outcome set (Wang et al. 2014):
# Assay: label from the status in PepcDB records
row,Sequence,protein production
1,VPSLATAIGSSGDRPAALAELIGIIQNDGIRLPPVRIDSLHFAADTPYDTELIINPELGQRVLPSEVATAMREALSQVVDGGTAKRVQGTFKMQDGSVLAMGGKTGTGDNRIESIGAGGRILSSRAINRTATFVFYIGDNHFGALTAFVPGRAAEGFRFTSALPVQVLKGMAPILTPYLENHGQAMCNAPLADPPTGA,failed
2,MQTTEIDLRLTEVSQQLTMVLVPGLRDSDDEHWQSHWERRFPHWQRIRQREWYQADLDRWVLAIRRELSVCTQPVILIGHSFGALAACHVVQQGQEGIAGVMLVAPAEPMRFEIDDRIQASPLSVPTLTFASHNDPLMSFTRAQYWAQAWDSELVDVGEAGHINAEAGFGPWEYGLKRLAEFSEILIPNR,not failed
3,MDLDVYVSAHRAEWDRLDDLLRRRRRLTGAEADELVALYQRTATHLSVIQSSAPDPQLTGRLSQLVARARSAVTGTRRASWRDVTRFLAYGFPAAVYRARHWWVPTALLSTVTAVLLGWWIGTHPEVQSSIAAPSELRALTRPGGEYETYYSSHPAASFAAQVWTNNAQAAAMCLVLGIFLGLPVLWILFQNMLNLGVGLGLMSSAGRLDTFLGLVLPHGLLELTAVFVAAGTGLRLGWTLIDPGPRSRRTALAEEGRAALGMAVGLALVLFVSGAIEGFVTPSGLPTWARIGIGIAAELAFLTYVYVLGGRATRAGDTGDIEAAERSATVPTAA,failed
4,MSQTLFWIAAACALAYLAMTARPASLMRSAVKTASVALLALMVLVSGGPVLLVLALALCALGDWLLSRETEATFMAGVGAFAAGHLAYVALFLTHPASDTGQLAAQWPLVAGLAALGLVMASLLAPRAGDLKGPVLAYVPIILGMGLAALTLPQAGVLAWVLPAAAAFIASDMILATEKFLLPPGHPALRLTPYLVWPLYWGAQMGFALALT,failed
5,LGGVAPEQVAYAVEQAGKRLQERDNAGVKVRPARLTDLDALEGMVAYWAGLGENLPRNRNELVRDIGSFAVAEHHGEVTGCASLYVYDSGLAEIRSLGVEAGWQSQGQGKAIVQHLVEKAREMAIKKVFVLTRVPEFFMKQDFIPTSRSLLPEKVLKDCDQCPRQH,failed
6,MAEDQTVLAIDIGGSHVKIGLSTDGEERKVESGKTMTGPEMVAAVTAMAKDMTYDVIAMGYPGPVVHNKPLREPVNLGEGWVGYDYEGAFGRPVRIVNDALMQAIGSYNGGRMLFLGLGTGLGAAMIVENVAQPMEIAHLPYRKGKTYEHYVSEAYREKKGNAKWQKRVQDVVERLSAALEPDEVVIGGGNVERLENLPPKCRRGDNAMAFEGGFRLWKNADLIV,not failed
7,MDSNWINCPSVFSSSSSSSRRCQSRSDLYLGGGYEDLEGEDDLKAEFICPFCAEDFDIVGLCCHIDEEHPVEAKNGVCPVCTKRNLCLFLDERFYVQRRRRLRRGGYSSTYLALKKELREANLQSLLGGSSSFTSSTNIDSDPLLSSFMFNSPSVNQSANKSATPVTVGNAATKVSIKESLKRDIQEAPLSGEDQEKAKKSEFVRGLLLSTMLEDDF,failed
8,MLELRPARAADVPAIAAMHAASWRASYRGILPDDYLDRYAADERLSLWRRRFETASPPWVRLACWDGEPVGFVCLLPEEAPELGVYLDNLHVLPGQQGRGIGRALMAAAAAEAERIAPGRPLYLWVYERNADACAAYDKMGGVVMARREVDTAAGTRAIALRYSWP,failed
9,MDQNVPISKKLWNIVRFLLYMIRKGVSKNKLIADFNATLKRGKNLMFHQRRRVHAGSTASAALNATSATASSRQEYEFSCSNTPNYSFPFSNMAFMRKKSHNNLFTCGQTPQTLDDDVAAARAVLELLNGVGEKGNVTPADLTVALSPYFPGFGQTPLVRPLRVTDSPFPLTPENGDVANGHVDKAADDFIKKFYKNLNQQKKMIEFS,failed
10,MSALEPDDPRSVGEYRLLGRLGAGGMGRVFLGRSPGGRLVAVKVVHAELLRRPEFRDRFRREVQAARMVSGAFTAPVVDADPDAPLPWLVTSYIAGPSLEQAVAERGPFDPQAVLTLAAGLAEALVSIHAAHLVHRDLKPSNVLLAEDGPRVIDFGIVRSVDADSLTGSGHMAGSPGFMSPEQVNGDEVTWASDVFCLGAVLAFAATGTNPFGAGPTPALLYRVVHNAPDVAAVADPALRSLIADCLAKDPAHRPAPREILARIGPLGGESATALPHAQQWTPAARPTRADAVPTRIVPPVAAPPAHQHTRVDTSPAQVYPPAPAPADVRPTATGDGGRRSRRAFLFSGAGALAALGVGTGFWLNRPADPDPAEGSAPAPSPSSAPSPPPGPVGLWPLDEASGQVARDTAGGHDGTVTGVAWQGAGEGAAFDGTGSQIVTAGPVLQTGAGRSFTVAAWVRLSAVPGVFATAVSQDSADASGFYLQYSSEDQGWAFARPGLRAVGRTAPAAHVWTHLTGVCDGPARKLHLYVNGVQEAVVEDTGPAPATGAFMIGRASFDGQPRDFFPGAIRDVRAFDRALGPARVAQLAQLG,failed
11,AKGSMIQFDAPDGKKANAYMVKASSPSTKYVFLIHEWWGLNDYIKKDADKLYADLGGNVNIMALDLYDGKVTANRDSAAAYMGAASATRIGSILNGAFMFAGDKAEIISMGWCFGGGWALQSSILAGNKSKGTIMYYGMTEKDPVKLAGLKGDVLGIFGSKDKWINPEMVAAFDKDLTAAGKKHTIKSFDADHAFANPSNPQFNKAYTEEAWGMSVAFIKKAFG,failed
12,MEILHFSPSSSISTIIHRPRRKIMALRDSIKTQMNLITTESVSSFRFCPCGRRHFIGAAMTSMPFLPISPSHASTSTEDLKRLRPPKPDWYEEFFAWSMNSEVESYEKEVSDYKMKLFDNLVGKAEKVLEIGIGTGPNFKYYTDIPNVSVIGIDPNAKMESYARKSATEAGLKPEEFTFVHALGESIPLEDASVDAVVGTLVLCSVTDVTQTLKEIKRILRPGGIYIFIEHVAAEDGTFLRLVQTVLDPLQQVVADGCHLTRHTGESILEARFNGGADVKKTSLSRLAYISSHVYGVAYN,failed
13,MAKPIRVLLYYKYVPIENAEQFAADHLAFCKSIGLKGRILVADEGINGTVSGEYETTQKYMDYVHSLPGMEDLWFKIDEEEEQAFKKMFVRYKKEIVHLGLEDNNFDSDINPLETTGAYLSPKEFKDALLDEDTVVLDTRNDYEYDLGHFRGAIRPDIRNFRELPQWVRDHKEEFMDKRVVVYCTGGVRCEKFSGWLVREGYKDVGQLHGGIVTYGKDPEVQGELWDGKLYVFDERIAVDVNHVDPIVVGKDWFDGTPCERYVNCGNPFCNRRILTSEENEDKYLRGCSHECRVHPRNRYVSENDLSQEEVVERLAAIGESLDVTPA,failed
14,MHETKVKLSNGLELHVEVGGNPDHPTILLIMGLGAQMLFWPDFFCKSLIDQGFYVIRFDNRDIGLSSKIRHKGKRLNTLKLMSRFTLGLGNQGAPYTLYDMAEDVSLLLEAMRIKKVNVIGASMGGMIAQIIAAKYPEKVEKLALMFTSNNQPLLPPPFPKQLFSLIGKPKSSDEDGIINHSLKLFEIIGSPGYVNQVEAIQTARKLYQRSYHPAGVLQQFLAILCTGSLLQLDKQISQPTLVIHGSRDRLLPPSHGKAVAKAIKGAKFELIQGMGHDIPPHFIPQLSYLFAHHFRS,failed
15,MMTALATVTGVERHGKQYEIDLSCEQQTSCSSCSSQKSCGTGVVTKAIGNKSLSWHLRTEKNVQVGQVVEIGFPESSLIKS,failed
16,MAMVASVSMAFVLVFCTILLFHFVQQSRFTTATQLESIARSVREPLSAAILKADIPEAEAILSRIQPAGIVSRADVVLPNQFQALRMRFIPERPVPVTVTRLFELPVQISLPIYSLERPANPQPLAYLVLQADSYRMYKFVMSALATLVTAYLLLVLMLTVALTWCINRLMVRPLRRIARELNDLSQQERLGHQLTLPRLHHDDEIGMLVRSYNRNQQSLVRQHDELSIQSTRFPVSELPNKAFLLAMLEQTVARPQSAALIVVACETLQDAAGVLKESQREMLLLTLVEKLRAAIPPQMVLAQVSGYDFAILADGLAEPWQAVTLSKQVLTIINERLPLHGLQLRPYASVGIAMFHAGLSAEQFYRRAVSAAVTARRKGKNQIEFFDPEQMEKAQRRLMEEHDIMTALDNQQFAIWLQPQVACASGEICGAEVLLRQRQADGSWSLPPSLIERIESCGLIIPVGYWVMEEACRQLAAWQSQGIMLPLSVNVSLLQLLEHDRGEEMLKLIARYRIAPGTLILEVTESCRMDDPQDVMARLRPLREAGVQIALDDFGMGYAGLHQLQQMKALPVDILKIDKVFIDMLPEDVSMVPAMIQLARGLSLRIVAEGVENDAQRRWLQAAGVEVLQGHLFGCALPQEAFSARYLSPAREDVNL,failed
17,MEVHYMTKIKEIKKVLQQEDADAAWITTPLNIFYFTGYRSEPHERLFALLIPSNEEPVLFCPKMEVEEVKQSPFKGKIIGYLDTENPFDKYSKTFSKMLIESEHLTVKRQRELTKAFNIEHYQDVDQSIKDLRNIK,failed
18,MDKNETRATIIRIGTDLISRQGFNATGIDAVLKEAGVPKGSFYYYFRSKEEFGLAVIDHFAERYDQRLDTFLNDEEVTPLNRIRNYLESALARLEQNQCSKGCLIGNLGQELADQHERFRGRLDEIFRSWKDRFAACLREAQRGGELAPELDAGVAAGFILSGLEGAILRTKVMKSPQPLRDFIEILFASVLRRQA,not failed
19,MSNEHKASIDGGQWAQCVRERGWLWDVAQGVEVQSAPTLILAHGAGAPMDSGFMNDIAVRLAGHGVNVLRFEFPYMAQRRLDGGKRPPNPAPRLLECWREVHALVRPYVTGVLALGGKSMGGRMASLLADELQADALVCLGYPFYAAGKPEKPRVAHLADLSVPSLIVQGERDALGNRQAVEAYTLAPGIELYWLTAADHDLKPLKASGFSHEQHLESAALKVAAFLKALS,failed
20,MTATASTVLPARALLLDMDGTLVNSDAAVDRVWRRWADRHGLDGDEVMKVVHGRQGYASMALLLPDRPMEHNHADNARMLAEETADTEGVVAIPGAAEFLASLRGLPHALVTSADVALSTARMAAAGLAQPDVRVTAESVGASKPDPEGFLKGAAELGIAPADCVVFEDSGAGIAAGRAAGMRVVGVGPRAGFHGPDVVVEDLTRVRVEADADGGLRLHIG,failed
21,MYAAVEHGPVLCSDSNILCLSWKGRVPKSEKEKPVCRRRYYEEGWLATGNGRGVVGVTFTSSHCRRDRSTPQRINFNLRGHNSEVVLVRWNEPYQKLATCDADGGIFVWIQYEGRWSVELVNDRGAQVSDFTWSHDGTQALISYRDGFVLVGSVSGQRHWSSEINLESQITCGIWTPDDQQVLFGTADGQVIVMDCHGRMLAHVLLHESDGILSMSWNYPIFLVEDSSESDTDSDDYSPPQDGPAAYPIPVQNTKPLLTVSFTSGDISLMNNYDDLSPTVIRSGLKEVVAQWCTQGDLLAVAGMEQQAQLSELPNGPLLKSAMVKFYNVRGEHIFTLDTLVQRPIISICWGHRDSRLLMASGPALYVVRVEHRVSSLQLLCQQAIASTLREDKDVNKLTLPPRLCSYLSTAFIPTIKPPIPDPNNMRDFVSYPSAGNERLHCTMKRTEDDPEVGGPCYTLYLEYLGGLVPILKGRRISKLRPEFVIMDPRTDSKSDEIYGNSLISTVIDSCNCSDSSDIELSDDWAAKKSPKISRSSKSPKLPRISIEARKSPKLPRAAQEISRSPRLPMRKPSMGSPSLTRREFPFEDITQVGSYN,failed
22,TVSQLRSRITRFALAGRGMRETVTWSFISEKQALAFGGGQAQLKLVNPISADMSVMRPSLLPGLLVAAQRNADRGFPDFALFEVSNIYEDDTPDKQHRVAGGIRRGTEQFGGAGRFWNGNARAVDVFDAKADALAVLEACGLESGKVQIEVGAPDWYHPGRSGVIKLGSKIILGFFGVFHPATLEKLDISGPLCGFEIFLDRIP,failed
